Results from patent publication US20250250593A1, “METHOD FOR PREPARING ALPHA-BRANCHED BETA'-HYDROXY CARBONYL COMPOUNDS BY ENZYMATIC-CATALYZED REDUCTIVE ALDOL REACTION” (Max-Planck-Gesellschaft zur Förderung der Wissenschaften …, priority 2022, published 2025).
Where a chain is given by its changes, count along the chain named.

B1: KsCcr variant His365Asn: KsCcr active site variant His365Asn, SEQ ID NO: 19 (protein)
chain: MQEILDAILSGDAASADYAALALPESYRAVTLHKGEERMFDGLASRDKDPRKSLHLDDVPLPELGPGEALVAVMASSVNYNTVWSSIFEPVSTFGFLERYGRLSPLTARHDLPYHVLGSDLAGVVLRTGAGVNAWKPGDEVVAHCLSVELESPDGHNDTMMDPEQRIWGFETNFGGLAQLALVKTNQLLPKPKHLTWEEAASPGLVNSTAYRQLVSRNGAGLKQGDNVLIWGASGGLGSYATQYALAGGATPICVVSSPRKADICRAMGAEAIIDRSAEGYRFWKDEHHQDPREWKRLGGKIREFTGGEDVDIVFEHPGRETFGASVYVTRKGGTIVTCASTSGYMHQYDNRYLWMSLKRIVGSNFANYREAFEANRLVAKGKIHPTLSKVYALEETGQAALDVHHNKHQGKVGVLCLAPREGLGVTDPELRSKHLTKINAFRNV
modifications: KsCcr variant His365Asn
B2: KsCcr variant Asn81Leu: KsCcr active site variant Asn81Leu, SEQ ID NO: 20 (protein)
chain: B1 chain with N81L, N365H
modifications: KsCcr variant Asn81Leu
B3: KsCcr WT: wild type crotonyl-CoA carboxylase/reductase obtained from Kitasatospora setae, SEQ ID NO: 1 (protein)
chain: B1 chain with N365H
modifications: Kitasatospora setae KsCCR crotonyl-CoA carboxylase/reductase
B4: KsCcr variant Thr82Asp: KsCcr variant Thr82Asp, SEQ ID NO: 21 (protein)
chain: B1 chain with T82D, N365H
modifications: KsCcr variant Thr82Asp
B5: KsCcr variant Glu171Ala: KsCcr variant Glu171Ala, SEQ ID NO: 24 (protein)
chain: B1 chain with E171A, N365H
modifications: KsCcr variant Glu171Ala
B6: KsCcr variant Ser119Ala: KsCcr variant Ser119Ala, SEQ ID NO: 22 (protein)
chain: B1 chain with S119A, N365H
modifications: KsCcr variant Ser119Ala
B7: KsCcr variant Asn81Asp: KsCcr active site variant Asn81Asp, no SEQ ID given (protein)
chain: B1 chain with N81D, N365H
B8: KsCcr variant Phe170Ala: KsCcr variant Phe170Ala, SEQ ID NO: 23 (protein)
chain: B1 chain with F170A, N365H
modifications: KsCcr variant Phe170Ala

What was measured:
[1] = molecular target: T1, Kitasatospora setae crotonyl-CoA carboxylase/reductase (KsCcr) variant His365Asn (H365N), SEQ ID NO: 19 (Kitasatospora setae, UniProt E4N096, H365N); assay: Steady-state kinetics of the reductive aldol reaction (crotonyl-CoA + formaldehyde + NADPH); assay type: biochemical
T1 construct: gene provided by JGI
T1 sequence (E4N096 1-445 H365N): B1 chain
Description: His-tagged KsCcr and its variants were expressed in E. coli BL21 (DE3). Cells in terrific broth were grown at 37° C. to an OD600=0.8-1.0 upon which expression for 12-16 h at 23° C. was induced by the addition of 500 μM IPTG (Isopropyl-D-β-thiogalactopyranoside). Cells were harvested for 15 min at 7500× g at 4° C. then resuspended in 2 mL of buffer A (50 mM Tris, 500 mM NaCl, 1 M L-Proline, pH=7.5) per gram of pellet. The suspension was treated with […] of DNAse I, 5 mM MgCl2, 10 μg/ml of lysozyme and incubated on ice for 20 min upon which cells were lysed using a sonicator. The lysate was clarified at 45000× g at 4° C. for 40 min and then loaded onto a pre-equilibrated 1 mL HisTrap FF column and washed with 15% buffer B (50 mM Tris, 500 mM NaCl, 1 M L-Proline, 500 mM imidazole, pH=7.5) for 20-30 column volumes until the UV 280 nm reached the baseline level. […]
Formaldehyde stock solution concentration was determined by following the formation of phenylhydrazone at 368 nm (εPhenylhydrazone,368 nm=6.1 mM^−1 cm^−1). […]
For reactions in which the full conversion to the aldol product was achieved assays were performed on a Cary-60 UV/Vis spectrophotometer (Agilent) at 30° C. using quartz cuvettes (1 mm, 3 mm or 10 mm path length; Hellma). […] Kinetic parameters for one substrate were determined by varying its concentration while the others were kept constant at 10 times their KM value.

KsCcr [2] = assay: HPLC analysis of reaction products: 2-HMB-CoA formed over total products from crotonyl-CoA and formaldehyde; assay type: biochemical, Kitasatospora setae; details: for Ratio of 2-HMB-CoA formed over total products: triplicates, mean ± standard deviation, values given as %
Source text: KsCcr wild-type (WT) natively promotes the NADPH-dependent reductive carboxylation of crotonyl-CoA into ethylmalonyl-CoA. […] Under these conditions, neither ethylmalonyl-CoA (carboxylation product) nor butyryl-CoA (reduction side product) were detected with LC-MS (see Table 2 further below). […] The compound was isolated and its structure was further verified using 2-dimensional NMR and high-resolution MS experiments. […] The newly introduced carbon was also observed in the ^13C-NMR experiment, confirming formation of aldol product 2-HMB-CoA by KsCcr.
The reaction was diluted 10 times into 5% methanol/Buffer 8.1 and analyzed by HPLC over an Agilent Eclipse Plus C18, 3.5 μm 100 Å, 100×2.1 mm, […] column using 5% to 30% acetonitrile gradient over 7.5 min with 25 mM ammonium formate pH=8.1 as the aqueous phase.

KsCcr [3] = assay: Native reductive carboxylation of crotonyl-CoA with CO2; assay type: biochemical, Kitasatospora setae; details: CO2 as electrophile
KsCcr [4] = assay: Reductive aldol reaction with longer chain aldehydes (acetaldehyde, propionaldehyde): product share and diastereomeric ratio by LC-MS; assay type: biochemical, Kitasatospora setae
Description: The reaction catalyzed by KsCcr generates an (S)-configured stereocenter at the α-position of the reaction product. When using higher substituted aldehydes, a second stereocenter would be generated at the β-position, which would be highly interesting for synthetic organic applications. It was first tested, whether KsCcr would accept longer chain aldehydes. Indeed, in the presence of 500 mM acetaldehyde, the enzyme formed 35% of 2-ethyl-3-hydroxybutyryl-CoA (2-EHB-CoA) over total products, with substantial amounts of butyryl-CoA as a side product. To improve yield, an acyl-CoA oxidase was used to continually recycle the side product butyryl-CoA back into the substrate crotonyl-CoA. With this proof-reading strategy the yield of the reaction could be increased up to 72%. High resolution mass spectrometry together with ^1H^−1H COSY and ^13C-NMR experiments confirmed the structure of 2-EHB-CoA.
To determine the stereochemistry at the β-position the reaction was analyzed by LC-MS and compared the retention times to chemically synthesized (2S,3R)-EHB-CoA and (2S,3S)-EHB-CoA standards.
Determination of CoA esters was performed using a HRES-LC-MS. The chromatographic separation was performed on an Thermo Scientific Vanquish HPLC System using a Kinetex Evo C18 column ([…], 100 Å, 1.7 μm, Phenomenexc) equipped with a 20×2.1 mm guard column of similar specificity at a constant eluent flow rate of 0.3 mL/min and a column temperature of 40° C. with eluent A being 50 mM ammonium formate pH=8.1 and eluent B being MeOH (Honeywell) The injection volume was 1 μl. […]
Target sequence in this assay (as listed by the source): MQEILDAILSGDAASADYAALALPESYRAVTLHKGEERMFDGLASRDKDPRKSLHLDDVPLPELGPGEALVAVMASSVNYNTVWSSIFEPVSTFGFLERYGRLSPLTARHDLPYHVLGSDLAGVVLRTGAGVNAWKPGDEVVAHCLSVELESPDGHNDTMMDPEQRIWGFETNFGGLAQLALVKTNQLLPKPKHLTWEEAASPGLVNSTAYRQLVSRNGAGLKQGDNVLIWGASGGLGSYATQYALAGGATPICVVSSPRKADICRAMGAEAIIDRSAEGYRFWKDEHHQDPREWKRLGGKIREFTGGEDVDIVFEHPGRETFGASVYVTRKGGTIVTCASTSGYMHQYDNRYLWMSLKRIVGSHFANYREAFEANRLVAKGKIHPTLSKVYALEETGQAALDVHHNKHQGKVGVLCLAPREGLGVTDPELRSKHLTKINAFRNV

| Molecule | Ratio of 2-HMB-CoA formed over total products (KsCcr [2]; 5 mM formaldehyde) | 2-HMB-CoA produced (reductive aldol product) (KsCcr [2]; 75 mM formaldehyde) | Ratio of 2-HMB-CoA formed over total products (KsCcr [2]; 75 mM formaldehyde) | also measured |
| --- | --- | --- | --- | --- |
| C=O [formaldehyde] |  |  |  | apparent catalytic rate relative to WT enzyme ([1]; decreased to % of the WT enzyme): 10%; apparent KM for formaldehyde, increase compared to WT ([1]; fold increase compared to WT): two-fold |
| B1 | 42 ± 1 | 89% | 89 ± 0 |  |
| B2 | 35 ± 0 | up to 64% | 64 ± 2 | carboxylation of crotonyl-CoA (KsCcr [3]; C2-ene adduct accumulates): completely impaired |
| B3 | 72 ± 1± |  | 96 ± 0 | aldol product generated (KsCcr [2]; ambient conditions, CO2 not strictly avoided): > 95%; yield of the reaction (2-EHB-CoA) (KsCcr [4]; 500 mM acetaldehyde with acyl-CoA oxidase recycling butyryl-CoA to crotonyl-CoA (proof-reading)): up to 72%; 2-ethyl-3-hydroxybutyryl-CoA (2-EHB-CoA) over total products (KsCcr [4]; 500 mM acetaldehyde, butyryl-CoA as side product): 35%; conversion with propionaldehyde (KsCcr [4]; compared with formaldehyde or acetaldehyde, product detected by MS): strongly decreased |
| B4 | 14 ± 1 | 57% | 57 ± 1 |  |
| B5 | 43 ± 0 |  | 89 ± 0 |  |
| B6 | 37 ± 3 | 83% | 83 ± 0 |  |
| B7 | 1 ± 0 |  | 11 ± 0 |  |
| B8 | 17 ± 0 | up to 64% | 64 ± 0 | reductive carboxylation (KsCcr [3]): 17% |
